The source of these data is patent US20240190939A1 (SHATTUCK LABS, published 2024).

The target of test [1] is T1, human PD-L1 on CHO-K1 cells (human, UniProt Q9NZQ7 19-290).
T1 construct: whole, on cells; also called hPD-L1 engineered cell line; hPD-L1 over-expressing cell line
The test can be described thus: flow cytometry on CHO-K1 cells expressing human PD-L1. The text has this: Cells were collected, washed, and stained with antibodies for the detection of the chimeric protein binding by flow cytometry.
On the technique in general: In flow cytometry, cells or beads pass a laser one at a time.

In the next test the target is T2, recombinant human PD-L2 (human, UniProt Q9BQ51 20-220).
T2 sequence (looked up): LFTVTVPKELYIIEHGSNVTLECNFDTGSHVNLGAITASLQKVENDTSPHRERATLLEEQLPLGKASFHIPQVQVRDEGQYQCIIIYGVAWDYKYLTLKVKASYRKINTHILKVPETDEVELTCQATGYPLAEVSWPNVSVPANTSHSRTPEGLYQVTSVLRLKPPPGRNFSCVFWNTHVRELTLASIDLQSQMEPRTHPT
As to the kind of experiment: biolayer interferometry (Octet), recombinant human PD-L2. A general note: Biolayer interferometry detects binding as a change in optical thickness at a sensor tip.

In a further test the target is T3, human LTBR-His (human, UniProt P36941 31-227, limits assumed).
T3 construct: also called hLTBR-His
T3 sequence (P36941 31-227 limits assumed): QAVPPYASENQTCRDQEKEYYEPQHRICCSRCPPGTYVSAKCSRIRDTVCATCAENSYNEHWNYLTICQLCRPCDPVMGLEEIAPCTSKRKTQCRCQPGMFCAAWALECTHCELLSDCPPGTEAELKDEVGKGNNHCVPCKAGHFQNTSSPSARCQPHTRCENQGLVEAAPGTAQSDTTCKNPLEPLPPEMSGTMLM
The test can be described thus: ELISA: hLTBR-Fc His Tag capture, 'hLIGHT Biotinylated' detection, streptavidin HRP. For orientation: In an ELISA, binding on a coated surface is turned into a signal by an enzyme label.

In another test the target is T4, hPDL1-Fc (human, UniProt Q9NZQ7 19-238).
T4 construct: not shown: Fc, not identified
T4 sequence (Q9NZQ7 19-238 limits assumed): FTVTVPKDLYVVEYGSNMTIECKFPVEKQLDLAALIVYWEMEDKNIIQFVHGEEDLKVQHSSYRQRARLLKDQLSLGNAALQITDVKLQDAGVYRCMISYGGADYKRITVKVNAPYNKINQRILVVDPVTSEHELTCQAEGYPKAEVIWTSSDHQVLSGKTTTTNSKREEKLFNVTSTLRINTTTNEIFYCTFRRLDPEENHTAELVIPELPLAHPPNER
As to the kind of experiment: Dual ELISA: hPDL1-Fc capture, hLTBR-His detection, 6x His HRP (signal needs both hPDL1-Fc and hLTBR-His bound). On the procedure:
For each chimeric protein ELISAs were performed under the following conditions: Heavy+Light Chain captured and detected with Fc-HRP (FIG. 13A and FIG. 13B, top left), a murine LTBR-His captured and detected with an antibody directed to murine LIGHT (FIG. 13A, top right) or human LTBR-His captured and detected with biotinylated human LIGHT (FIG. 138, top right), and mPD-L1 captured and detected with an antibody directed to mLIGHT (FIG. 13A, bottom left; “Dual ELISA”) or hPDL1-Fc captured and detected with hLTBR-His/6×His-HRP (FIG. 13A, bottom left; “Dual ELISA”).

In test [2] the target is T5, mouse PVR on CHO-K1 cells (mouse).
T5 construct: whole, on cells; also called CHOK1/PVR; mPVR engineered cell line
The test can be described thus: flow cytometry on CHO-K1 cells expressing murine PVR.

A further test has as its target T6, recombinant CD155.
T6 construct: also called CD155/PVR
The test can be described thus: ELISA: CD155/PVR capture, Fc-HRP detection.

T1 sequence (Q9NZQ7 19-290): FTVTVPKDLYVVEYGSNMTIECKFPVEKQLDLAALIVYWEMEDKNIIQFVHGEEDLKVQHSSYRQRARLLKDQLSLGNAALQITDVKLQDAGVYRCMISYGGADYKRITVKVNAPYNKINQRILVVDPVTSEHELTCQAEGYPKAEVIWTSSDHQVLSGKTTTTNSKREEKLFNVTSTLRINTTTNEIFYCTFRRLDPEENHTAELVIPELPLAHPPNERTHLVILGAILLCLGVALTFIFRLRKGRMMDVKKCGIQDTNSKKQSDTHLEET

B1: human PD-1-Fc-LIGHT chimeric protein (Fc fusion)
chain: LDSPDRPWNPPTFSPALLVVTEGDNATFTCSFSNTSESFVLNWYRMSPSNQTDKLAAFPEDRSQPGQDCRFRVTQLPNGRDFHMSVVRARRNDSGTYLCGAISLAPKAQIKESLRAELRVTERRAEVPTAHPSPSPRPAGQFQSKYGPPCPPCPAPEFLGGPSVFLFPPKPKDQLMISRTPEVTCVVVDVSQEDPEVQFNWYVDGVEVHNAKTKPREEQFNSTYRVVSVLTVLHQDWLSGKEYKCKVSSKGLPSSIEKTISNATGQPREPQVYTLPPSQEEMTKNQVSLTCLVKGFYPSDIAVEWESNGQPENNYKTTPPVLDSDGSFFLYSRLTVDKSRWQEGNVFSCSVLHEALHNHYTQKSLSLSLGKIEGRMDLQLHWRLGEMVTRLPDGPAGSWEQLIQERRSHEVNPAAHLTGANSSLTGSGGPLLWETQLGLAFLRGLSYHDGALVVTKAGYYYIYSKVQLGGVGCPLGLASTITHGLYKRTPRYPEELELLVSQQSPCGRATSSSRVWWDSSFLGGVVHLEAGEKVVVRVLDERLVRLRDGTRSYFGAFMV
notes: also called hPD-1-Fc-LIGHT
Broadly, the EC50 is the concentration that produces a half-maximal response. Low values mean greater potency, high ones weaker potency. The term EC50 (read off the curve) denotes the concentration at which the effect is half-maximal. For B1, the response in test [1] was half-maximal at 48 nM (EC50). For the same molecule, the binding result with recombinant human PD-L2 was “binds”. For the same molecule, the results for the “EC50 (read off the curve)” value with human LTBR-His and in the test with hPDL1-Fc were about 20 nM and about 10 nM, respectively.

B2: murine TIGIT-Fc-LIGHT chimeric protein (Fc fusion)
chain 1: TIDTKRNISAEEGGSVILQCHFSSDTAEVTQVDWKQQDQLLAIYSVDLGWHVASVFSDRVVPGPSLGLTFQSLTMNDTGEYFCTYHTYPGGIYKGRIFLKVQESSDDRNGLAQFQTAPLG
chain 2: LHQRLGDIVAHLPDGGKGSWEKLIQDQRSHQANPAAHLTGANASLIGIGGPLLWETRLGLAFLRGLTYHDGALVTMEPGYYYVYSKVQLSGVGCPQGLANGLPITHGLYKRTSRYPKELELLVSRRSPCGRANSSRVWWDSSFLGGVVHLEAGEEVVVRVPGNRLVRPRDGTRSYFGAFMV
Molecule B2 gave an EC50 in test [2] of 215 nM. Further, the half-maximal effective concentration (EC50 (read off the curve)) with recombinant CD155 was about 5 nM.
